Target: the molecule itself
Assay: SEC-MALS

B1: TFG PB1 domain (amino acids 1-96), wild type (domain or fragment, human, UniProt Q92734 1-96, looked up)
chain: MNGQLDLSGKLIIKAQLGEDIRRIPIHNEDITYDELVLMMQRVFRGKLLSNDEVTIKYKDEDGDLITIFDSSDLSFAIQCSRILKLTLFVNGQPRP
stoichiometry N: 8

— doi:10.1101/2024.11.05.621662 (bioRxiv, 2024)
